Assay results taken from patent US20180339041A1 (Kyowa Kirin, published 2018).
Substitutions are numbered along the chain they refer to. Names and notes keep the numbering of the source.

T1: C-terminally FLAG-tagged human Gas6 recombinant protein (hGas6-F) (human, UniProt Q14393 31-678, gamma-carboxylated glutamic acid residues in the Gla domain (producer cells co-express rat VKOR and human GGCX); positions not given)
T1 construct: also called human Gas6-F; human Gas6 protein
T1 sequence: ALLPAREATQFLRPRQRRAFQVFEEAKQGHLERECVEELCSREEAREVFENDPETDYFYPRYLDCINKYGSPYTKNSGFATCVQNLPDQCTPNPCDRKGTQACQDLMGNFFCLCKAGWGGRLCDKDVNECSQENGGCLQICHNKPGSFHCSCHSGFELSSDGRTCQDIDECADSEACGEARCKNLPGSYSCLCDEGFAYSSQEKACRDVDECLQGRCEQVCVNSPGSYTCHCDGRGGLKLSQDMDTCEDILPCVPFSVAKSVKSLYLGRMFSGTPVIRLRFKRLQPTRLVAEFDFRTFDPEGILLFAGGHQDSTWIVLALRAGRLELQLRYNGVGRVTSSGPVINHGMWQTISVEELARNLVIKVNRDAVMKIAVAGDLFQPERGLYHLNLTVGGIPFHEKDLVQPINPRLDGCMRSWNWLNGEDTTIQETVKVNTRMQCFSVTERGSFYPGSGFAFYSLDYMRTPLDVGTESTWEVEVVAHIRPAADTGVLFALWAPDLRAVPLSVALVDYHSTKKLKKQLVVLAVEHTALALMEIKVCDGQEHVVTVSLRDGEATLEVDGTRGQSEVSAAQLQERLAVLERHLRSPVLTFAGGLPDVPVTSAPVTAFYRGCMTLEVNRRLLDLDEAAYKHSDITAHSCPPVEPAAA

B1: hzKM5320 LV5HV3a antibody (antibody, V domains shown)
VH: QVQLVQSGSELKKPGASVKVSCKASGYTFTNYGMNWVRQAPGQGLKWMGWINTETGEPTYSDDFKGRFVFSLDTSVSTAYLQISSLKAEDTATYFCAREDGYYGTLDYWGQGTTVTVSS
VL: DIVMTQSPDSLAVSLGERVTINCKASQSVSNDVAWYQQKPGQSPKVLIYYASNRYTGVPDRFSGSGSGTDFTFTISSVQAEDVAVYFCQQDYSSPWTFGQGTKLEIK
notes: Humanized; variant human IgG4 constant region (EU S228P, L235E, R409K), human kappa; also called A-21
B2: hzKM5320 LV5HV3c antibody (antibody, V domains shown)
VH: B1 VH with S9P, R38K, T93V, F95Y
VL: B1 VL
notes: Humanized; variant human IgG4 constant region (EU S228P, L235E, R409K), human kappa; also called A-23
B3: hzKM5320 LV2bHV0 antibody (antibody, V domains shown)
VH: B1 VH with K46E, T93V, F95Y
VL: B1 VL with I2V, L15A, V46L, V78L, F87Y
notes: Humanized; variant human IgG4 constant region (EU S228P, L235E, R409K), human kappa; also called A-06
B4: hzKM5320 LV2bHV8 antibody (antibody, V domains shown)
VH: B1 VH with V2I, S9P, V20I, R38K, S77T
VL: B1 VL with I2V, L15A, V46L, V78L, F87Y
notes: Humanized; variant human IgG4 constant region (EU S228P, L235E, R409K), human kappa; also called A-14
B5: hzKM5320 LV2aHV0 antibody (antibody, V domains shown)
VH: B1 VH with K46E, T93V, F95Y
VL: B1 VL with I2V, V46L, F73L
notes: Humanized; variant human IgG4 constant region (EU S228P, L235E, R409K), human kappa; also called A-05
B6: hzKM5320 LV6HV8 antibody (antibody, V domains shown)
VH: B1 VH with V2I, S9P, V20I, R38K, S77T
VL: B1 VL with L15A
notes: Humanized; variant human IgG4 constant region (EU S228P, L235E, R409K), human kappa; also called A-17
B7: hzKM5320 LV3HV0 antibody (antibody, V domains shown)
VH: B1 VH with K46E, T93V, F95Y
VL: B1 VL with I2V, V78L
notes: Humanized; variant human IgG4 constant region (EU S228P, L235E, R409K), human kappa; also called A-07
B8: hzKM5320 LV5HV6 antibody (antibody, V domains shown)
VH: B1 VH with S9P, V20I, R38K
VL: B1 VL
notes: Humanized; variant human IgG4 constant region (EU S228P, L235E, R409K), human kappa; also called A-25
B9: hzKM5320 LV5HV8 antibody (antibody, V domains shown)
VH: B1 VH with V2I, S9P, V20I, R38K, S77T
VL: B1 VL
notes: Humanized; variant human IgG4 constant region (EU S228P, L235E, R409K), human kappa; also called A-16
B10: hzKM5320 LV5HV1 antibody (antibody, V domains shown)
VH: B1 VH with T93V, F95Y
VL: B1 VL
notes: Humanized; variant human IgG4 constant region (EU S228P, L235E, R409K), human kappa; also called A-19
B11: hzKM5320 LV1aHV0 antibody (antibody, V domains shown)
VH: B1 VH with K46E, T93V, F95Y
VL: B1 VL with I2V, V46L, F73L, V78L
notes: Humanized; variant human IgG4 constant region (EU S228P, L235E, R409K), human kappa; also called A-03
B12: hzKM5320 LV1bHV8 antibody (antibody, V domains shown)
VH: B1 VH with V2I, S9P, V20I, R38K, S77T
VL: B1 VL with I2V, V46L, F73L, F87Y
notes: Humanized; variant human IgG4 constant region (EU S228P, L235E, R409K), human kappa; also called A-12
B13: hzKM5320 LV3HV8 antibody (antibody, V domains shown)
VH: B1 VH with V2I, S9P, V20I, R38K, S77T
VL: B1 VL with I2V, V78L
notes: Humanized; variant human IgG4 constant region (EU S228P, L235E, R409K), human kappa; also called A-15
B14: hzKM5320 LV5HV4 antibody (antibody, V domains shown)
VH: B1 VH with S9P
VL: B1 VL
notes: Humanized; variant human IgG4 constant region (EU S228P, L235E, R409K), human kappa; also called A-24
B15: hzKM5320 LV0HV8 antibody (antibody, V domains shown)
VH: B1 VH with V2I, S9P, V20I, R38K, S77T
VL: B1 VL with I2V, V46L, F73L, V78L, F87Y
notes: Humanized; variant human IgG4 constant region (EU S228P, L235E, R409K), human kappa; also called A-10
B16: hzKM5320 LV5HV0 antibody (antibody, V domains shown)
VH: B1 VH with K46E, T93V, F95Y
VL: B1 VL
notes: Humanized; variant human IgG4 constant region (EU S228P, L235E, R409K), human kappa; also called A-08
B17: hzKM5320 LV5HV3b antibody (antibody, V domains shown)
VH: B1 VH with V2I, V20I, K46E, T93V
VL: B1 VL
notes: Humanized; variant human IgG4 constant region (EU S228P, L235E, R409K), human kappa; also called A-22
B18: hzKM5320 LV6HV0 antibody (antibody, V domains shown)
VH: B1 VH with K46E, T93V, F95Y
VL: B1 VL with L15A
notes: Humanized; variant human IgG4 constant region (EU S228P, L235E, R409K), human kappa; also called A-09
B19: hzKM5320 LV2aHV8 antibody (antibody, V domains shown)
VH: B1 VH with V2I, S9P, V20I, R38K, S77T
VL: B1 VL with I2V, V46L, F73L
notes: Humanized; variant human IgG4 constant region (EU S228P, L235E, R409K), human kappa; also called A-13
B20: hzKM5320 LV1aHV8 antibody (antibody, V domains shown)
VH: B1 VH with V2I, S9P, V20I, R38K, S77T
VL: B1 VL with I2V, V46L, F73L, V78L
notes: Humanized; variant human IgG4 constant region (EU S228P, L235E, R409K), human kappa; also called A-11
B21: hzKM5321 LV6HV1 antibody (antibody, V domains shown)
VH: QVHLVQSGSELKKPGASVKISCKASGYTFTNYGMNWVRQAPGQGLKWMGWINTNTGEPTYTEEFKGRFVFSLDTSVTTSYLQISTLKAEDTAVYFCARDEGWFVYWGQGTLVTVSS
VL: ETTLTQSPSSLSVSTGDRVTITCITSTDIDDDMNWYQQKPGKPPKLLISEGNTLRPGVPSRFSSSGSGTDFTLTISSTQPEDFADYYCLQTDSVPLTFGQGTKVEIK
notes: Humanized; variant human IgG4 constant region (EU S228P, L235E, R409K), human kappa; also called B-22; LV6HV1
B22: hzKM5321 LV1bHV0 antibody (antibody, V domains shown)
VH: B21 VH with K46E
VL: B21 VL with V13A, T15V, P43A, S64G, T78L
notes: Humanized; variant human IgG4 constant region (EU S228P, L235E, R409K), human kappa; also called B-04; LV1bHV0
B23: hzKM5321 LV1aHV7 antibody (antibody, V domains shown)
VH: B21 VH with V2I, S9P, R38K, S79A, V93T, V112I
VL: B21 VL with V13A, T15V, S64G, T78L, D85T
notes: Humanized; variant human IgG4 constant region (EU S228P, L235E, R409K), human kappa; also called B-13; LV1aHV7
B24: hzKM5321 LV1aHV0 antibody (antibody, V domains shown)
VH: B21 VH with K46E
VL: B21 VL with V13A, T15V, S64G, T78L, D85T
notes: Humanized; variant human IgG4 constant region (EU S228P, L235E, R409K), human kappa; also called B-03; LV1aHV0
B25: hzKM5321 LV1cHV7 antibody (antibody, V domains shown)
VH: B21 VH with V2I, S9P, R38K, S79A, V93T, V112I
VL: B21 VL with T15V, P43A, S64G, T78L, D85T
notes: Humanized; variant human IgG4 constant region (EU S228P, L235E, R409K), human kappa; also called B-15; LV1cHV7
B26: hzKM5321 LV0HV7 antibody (antibody, V domains shown)
VH: B21 VH with V2I, S9P, R38K, S79A, V93T, V112I
VL: B21 VL with V13A, T15V, P43A, S64G, T78L, D85T
notes: Humanized; variant human IgG4 constant region (EU S228P, L235E, R409K), human kappa; also called B-12; LV0HV7
B27: hzKM5321 LV1cHV0 antibody (antibody, V domains shown)
VH: B21 VH with K46E
VL: B21 VL with T15V, P43A, S64G, T78L, D85T
notes: Humanized; variant human IgG4 constant region (EU S228P, L235E, R409K), human kappa; also called B-05; LV1cHV0
B28: hzKM5321 LV1bHV7 antibody (antibody, V domains shown)
VH: B21 VH with V2I, S9P, R38K, S79A, V93T, V112I
VL: B21 VL with V13A, T15V, P43A, S64G, T78L
notes: Humanized; variant human IgG4 constant region (EU S228P, L235E, R409K), human kappa; also called B-14; LV1bHV7

Target: T1, C-terminally FLAG-tagged human Gas6 …
Assay: SPR Biacore T100, captured antibody, Gas6 analyte, first test
Method: An anti-human IgG antibody was immobilized on a CM5 sensor chip (manufactured by GE Healthcare Japan Corp.) using Human Antibody Capture Kit (manufactured by GE Healthcare Japan Corp.) according to the attached manual. Each test antibody adjusted to 1 μg/mL was added for 10 seconds at a flow rate of 10 μL/min to flow cells. […] The measurement was performed by the […] method. The obtained sensorgram was analyzed using Bia Evaluation Software (manufactured by GE Healthcare Japan Corp.), and the kinetic constant of each antibody was calculated.

Row | Binder | Kd | koff | kon
1 | B1 | < 2.3 nM | 0.000177 s⁻¹ | > 77100 M⁻¹ s⁻¹
2 | B2 | < 1.79 nM | 0.00014 s⁻¹ | > 77900 M⁻¹ s⁻¹
3 | B3 | < 14.4 nM | 0.00104 s⁻¹ | > 72600 M⁻¹ s⁻¹
4 | B4 | < 9.77 nM | 0.000791 s⁻¹ | > 81000 M⁻¹ s⁻¹
5 | B5 | < 15.2 nM | 0.00105 s⁻¹ | > 69100 M⁻¹ s⁻¹
6 | B6 | < 2.18 nM | 0.000158 s⁻¹ | > 72500 M⁻¹ s⁻¹
7 | B7 | < 2.91 nM | 0.000209 s⁻¹ | > 71900 M⁻¹ s⁻¹
8 | B8 | < 1.8 nM | 0.000147 s⁻¹ | > 81700 M⁻¹ s⁻¹
9 | B9 | < 2.11 nM | 0.000155 s⁻¹ | > 73600 M⁻¹ s⁻¹
10 | B10 | < 2.48 nM | 0.000184 s⁻¹ | > 74100 M⁻¹ s⁻¹
11 | B11 | < 12.6 nM | 0.000829 s⁻¹ | > 65700 M⁻¹ s⁻¹
12 | B12 | < 11 nM | 0.000856 s⁻¹ | > 77900 M⁻¹ s⁻¹
13 | B13 | < 2.3 nM | 0.000174 s⁻¹ | > 75600 M⁻¹ s⁻¹
14 | B14 | < 2.19 nM | 0.000173 s⁻¹ | > 79200 M⁻¹ s⁻¹
15 | B15 | < 9.79 nM | 0.000714 s⁻¹ | > 72900 M⁻¹ s⁻¹
16 | B16 | < 2.85 nM | 0.00019 s⁻¹ | > 66700 M⁻¹ s⁻¹
17 | B17 | < 2.01 nM | 0.000153 s⁻¹ | > 76300 M⁻¹ s⁻¹
18 | B18 | < 3.22 nM | 0.000216 s⁻¹ | > 67200 M⁻¹ s⁻¹
19 | B19 | < 10.2 nM | 0.0008 s⁻¹ | > 78600 M⁻¹ s⁻¹
20 | B20 | < 9.64 nM | 0.000694 s⁻¹ | > 72000 M⁻¹ s⁻¹
21 | B21 | < 2.35 nM | 0.000239 s⁻¹ | > 102000 M⁻¹ s⁻¹
22 | B22 | < 4.26 nM | 0.000543 s⁻¹ | > 127000 M⁻¹ s⁻¹
23 | B23 | < 6.83 nM | 0.000684 s⁻¹ | > 100000 M⁻¹ s⁻¹
24 | B24 | < 3.92 nM | 0.000492 s⁻¹ | > 126000 M⁻¹ s⁻¹
25 | B25 | < 7.45 nM | 0.00075 s⁻¹ | > 101000 M⁻¹ s⁻¹
26 | B26 | < 6.74 nM | 0.000672 s⁻¹ | > 100000 M⁻¹ s⁻¹
27 | B27 | < 4.05 nM | 0.000511 s⁻¹ | > 126000 M⁻¹ s⁻¹
28 | B28 | < 7.49 nM | 0.000751 s⁻¹ | > 100000 M⁻¹ s⁻¹
